The record followed here is patent publication US20220056131A1 (MacroGenics, published 2022).

The target in experiment [1] is T1, soluble cynomolgus monkey CD3 (cynomolgus monkey).
T1 chain: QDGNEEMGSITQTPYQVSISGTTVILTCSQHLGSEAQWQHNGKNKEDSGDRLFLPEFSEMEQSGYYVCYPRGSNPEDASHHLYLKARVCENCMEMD
The experiment in a line: bispecific binding ELISA with soluble cynomolgus CD3 and soluble human B7H3 (sheet title 'sCynCD3-shB7H3 Bispecific Binding Elisa'); format not described, OD450. (ELISA stands for enzyme-linked immunosorbent assay.)

Experiment [2] concerns the target T2, epidermal growth factor receptor (EGFR) on A498 kidney cancer cells or A431 epidermoid carcinoma cells (UniProt P00533 25-1210, limits assumed).
T2 construct: whole, on cells
The experiment in a line: flow cytometry, binding to A498 kidney cancer cells, MFI. Background: A flow cytometer gives signals particle by particle.

Experiment [3] addresses soluble human CD3 (extracellular domain of human CD3) (human). In words: capture ELISA, plate coated with 1 µg/ml shCD3, OD450.
The target is the same in experiment [4]. In words: BIACORE SPR, capture with anti-EK antibodies, bivalent fit. For orientation: SPR reads the build-up and loss of mass on a sensor chip optically.
The target in experiment [5] is T1, soluble cynomolgus monkey CD3. The description is as above.
Experiment [6] has as its target soluble human CD3 (extracellular domain of human CD3) (human). In words: capture ELISA, plate coated with 1 µg/ml soluble human CD3, OD450.
The target is the same in experiment [7]. In words: capture ELISA, plate coated with 0.5 µg/ml shCD3, OD450.
Experiment [8] has as its target T1, soluble cynomolgus monkey CD3. In words: capture ELISA, plate coated with 1 µg/ml soluble cynomolgus monkey CD3, OD450.

Substitutions are numbered along the chain they refer to. Names may count otherwise.

soluble human CD3 (extracellular domain of human CD3) (human), sequence (P07766 23-126, chain 1 of 2): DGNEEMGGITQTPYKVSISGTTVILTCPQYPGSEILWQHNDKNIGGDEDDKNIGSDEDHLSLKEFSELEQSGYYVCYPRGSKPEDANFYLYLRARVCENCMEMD
soluble human CD3 (extracellular domain of human CD3) (human), sequence (P04234 22-105, chain 2 of 2, further chain): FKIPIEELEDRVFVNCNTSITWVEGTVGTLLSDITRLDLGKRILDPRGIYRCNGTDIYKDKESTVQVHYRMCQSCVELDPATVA

B1: B7-H3-2-h-mAb2 DART diabody (bispecific antibody)
chain 1: DIQLTQSPSFLSASVGDRVTITCKASQNVDTNVAWYQQKPGKAPKALIYSASYRYSGVPSRFSGSGSGTDFTLTISSLQPEDFATYYCQQYNNYPFTFGQGTKLEIKGGGGSGGGGEVQLVESGGGLVQPGGSLRLSCAASGFTFNTYAMNWVRQAPGKGLEWVARIRSKYNNYATYYADSVKDRFTISRDDSKNSLYLQMNSLKTEDTAVYYCVRHGNFGNSYVSWFAYWGQGTLVTVSSGGCGGGEVAALEKEVAALEKEVAALEKEVAALEK
chain 2: QAVVTQEPSLTVSPGGTVTLTCRSSTGAVTTSNYANWVQQKPGQAPRGLIGGTNKRAPWTPARFSGSLLGGKAALTITGAQAEDEADYYCALWYSNLWVFGGGTKLTVLGGGGSGGGGEVQLVESGGGLVQPGGSLRLSCAASGFTFSSFGMHWVRQAPGKGLEWVAYISSDSSAIYYADTVKGRFTISRDNAKNSLYLQMNSLRDEDTAVYYCGRGRENIYYGSRLDYWGQGTTVTVSSGGCGGGKVAALKEKVAALKEKVAALKEKVAALKE
notes: Two-chain diabody, hBRCA84D (anti-B7-H3) x h-mAb2
Turning to B1, the “EC50 (read off the curve)” value in experiment [1] was ~0.03 µg/mL.

B2: 4420 x huXR32 (bispecific antibody)
4420VL-hXR32VH-E coil: DVVMTQTPFSLPVSLGDQASISCRSSQSLVHSNGNTYLRWYLQKPGQSPKVLIYKVSNRFSGVPDRFSGSGSGTDFTLKISRVEAEDLGVYFCSQSTHVPWTFGGGTKLEIKGGGSGGGGEVQLVESGGGLVQPGGSLRLSCAASGFTFNTYAMNWVRQAPGKGLEWVARIRSKYNNYATYYADSVKDRFTISRDDSKNSLYLQMNSLKTEDTAVYYCVRHGNFGNSYVSWFAYWGQGTLVTVSSGGCGGGEVAALEKEVAALEKEVAALEKEVAALEK
hXR32VL-4420VH-K coil: QAVVTQEPSLTVSPGGTVTLTCRSSTGAVTTSNYANWVQQKPGQAPRGLIGGTNKRAPWTPARFSGSLLGGKAALTITGAQAEDEADYYCALWYSNLWVFGGGTKLTVLGGGGSGGGGEVKLDETGGGLVQPGRPMKLSCVASGFTFSDYWMNWVRQSPEKGLEWVAQIRNKPYNYETYYSDSVKGRFTISRDDSKSSVYLQMNNLRVEDMGIYYCTGSYYGMDYWGQGTSVTVSSGGCGGGKVAALKEKVAALKEKVAALKEKVAALKE
With B2, in experiment [2], the binding result is reported as “no binding”.

B3: chimeric variant of mAb2 antibody (ch-mAb2) (antibody, V domains shown)
VH: EVKLLESGGGLVQPKGSLKLSCAASGFTFNTYAMNWVRQAPGKGLEWVARIRSKYNNYATYYADSVKDRFTISRDDSQSILYLQMNNLKTEDTAMYYCVRHGNFGNSYVSWFAYWGQGTLVTVSA
VL: QAVVTQESALTTSPGETVTLTCRSSTGAVTTSNYANWVQEKPDHLFTGLIGGTNKRAPGVPARFSGSLIGDKAALTITGAQTEDEAIYFCALWYSNLWVFGGGTKLTVLG
notes: also called chimeric mAb2; mAb2 chimeric antibody
Consider B3, for which the EC50 (read off the curve) in experiment [3] is 0.03 µg/mL; in experiment [6] it was 0.03 µg/mL; in experiment [7] it was 0.03 µg/mL; in experiment [8], ~0.03 µg/mL. Moreover, the Kd in experiment [4] was determined as 14.7 nM; in experiment [5], 14.4 nM. In addition, the kon amounted to 170000 M⁻¹ s⁻¹ in experiment [4] and 160000 M⁻¹ s⁻¹ in experiment [5].

B4: humanized mAb2 (h-mAb2) (antibody, V domains shown)
VH: B3 VH with K3Q, L5V, K15G, K19R, Q78K, S79N, I80S, N87S, M95V, A125S
VL: QAVVTQEPSLTVSPGGTVTLTCRSSTGAVTTSNYANWVQQKPGQAPRGLIGGTNKRAPWTPARFSGSLLGGKAALTITGAQAEDEADYYCALWYSNLWVFGGGTKLTVLG
notes: also called humanized variant of mAb2
Consider B4, for which the results for the Kd in experiment [4] and in experiment [5] were 20 nM and 24.1 nM, respectively. Moreover, the on-rate (kon) turned out to be 190000 M⁻¹ s⁻¹ in experiment [4] and 170000 M⁻¹ s⁻¹ in experiment [5]. Further, the concentration giving a half-maximal response (EC50 (read off the curve)) was 0.03 µg/mL in experiment [6] and ~0.03 µg/mL in experiment [8].

B5: antibody having an h-mAb2 VL-6 light chain and the heavy chain of the mAb2 chimeric antibody (antibody, V domains shown)
VH: B3 VH
VL: B4 VL
notes: also called h-mAb2 VL-6 light chain antibody (Kabat F36V and T46G)
For the molecule B5, the EC50 (read off the curve) was 0.03 µg/mL in experiment [6], 0.04 µg/mL in experiment [7] and ~0.03 µg/mL in experiment [8].

B6: h-mAb2VH-8 HC / ch-mAb2 LC (antibody, V domains shown)
VH: B3 VH with K3Q, L5V, K15G, K19R, Q78K, S79N, I80S, N87S, M95V, A125S
VL: B3 VL
notes: also called ch-mAb2 LC / h-mAb2VH-8 HC
As for B6, the EC50 (read off the curve) in experiment [6] is 0.03 µg/mL; in experiment [8], ~0.03 µg/mL.

B7: antibody having an h-mAb2 VL-8 light chain and the heavy chain of the mAb2 chimeric antibody (antibody, V domains shown)
VH: B3 VH
VL: B4 VL with Q40E
For the molecule B7, the EC50 (read off the curve) in experiment [3] came out at 0.03 µg/mL; in experiment [7] it was 0.04 µg/mL.

Usually EC50 (read off the curve) stands for the concentration that produces a half-maximal response. The kon is the second-order rate constant of association.
